Test results reported in patent publication US20100273669A1.

Target: MBP2-ISEF-N1G1N2-(…)-NVDE1-184-…-FKBP2-GSRS-6His (bacteriophage M13; yeast; human) (UniProt P69168)
Test: cell-based or functional assay

Sequence of MBP2-ISEF-N1G1N2-(…)-NVDE1-184-…-FKBP2-GSRS-6His (bacteriophage M13; yeast; human) (P69168 19-265, tags or fused parts left off): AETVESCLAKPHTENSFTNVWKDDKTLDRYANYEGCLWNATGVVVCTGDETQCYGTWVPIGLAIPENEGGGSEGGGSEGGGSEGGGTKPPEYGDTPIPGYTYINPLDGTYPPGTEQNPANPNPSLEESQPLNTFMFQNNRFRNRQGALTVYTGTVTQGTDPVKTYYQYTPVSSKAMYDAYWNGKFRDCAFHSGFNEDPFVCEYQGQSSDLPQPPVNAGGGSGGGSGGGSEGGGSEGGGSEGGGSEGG

phage displaying the fusion protein FRB-TS-CVDE390-454-GSGGGS-CTg3p (from UniProt P42345 2021-2113; P17255 390-454)
phages recovering infecting ability counted as colony forming units, with against without rapamycin (10 µM): 100 times
